Test results reported in paper PMC11910139.

Biological target: ENG-HA (endoglin, HA-tagged, ectopically expressed) (UniProt P17813)
Experiment: flow cytometry on cells; cells (HEK293T with or without ENG overexpression, DPSCs with or without ENG knockdown or anti-ENG pretreatment, HUVECs) incubated with His-tagged DSP (0.5 μg/ml) or BSA at 37 °C for 1 h; detected with anti-His-tag mAb-Alexa Fluor 488 and PE anti-human ENG antibody

Sequence of UniProt P17813 (P17813 26-658): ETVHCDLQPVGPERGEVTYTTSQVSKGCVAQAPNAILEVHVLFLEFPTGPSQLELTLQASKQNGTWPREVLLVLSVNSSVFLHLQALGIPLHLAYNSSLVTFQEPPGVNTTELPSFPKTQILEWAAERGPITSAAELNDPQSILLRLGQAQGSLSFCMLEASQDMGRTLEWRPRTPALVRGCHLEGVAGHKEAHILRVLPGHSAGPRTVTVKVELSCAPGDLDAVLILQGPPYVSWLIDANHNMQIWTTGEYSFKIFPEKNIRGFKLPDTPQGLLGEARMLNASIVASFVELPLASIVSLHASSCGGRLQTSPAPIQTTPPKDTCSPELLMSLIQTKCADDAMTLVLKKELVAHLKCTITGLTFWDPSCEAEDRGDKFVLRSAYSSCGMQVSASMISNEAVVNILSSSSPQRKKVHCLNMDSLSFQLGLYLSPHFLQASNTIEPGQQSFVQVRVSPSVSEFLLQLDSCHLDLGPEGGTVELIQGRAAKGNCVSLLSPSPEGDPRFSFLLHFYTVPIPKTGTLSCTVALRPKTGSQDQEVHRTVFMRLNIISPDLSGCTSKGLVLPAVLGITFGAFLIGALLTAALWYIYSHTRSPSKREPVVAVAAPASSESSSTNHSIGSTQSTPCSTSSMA

fold increase of the DSP-His signal on HEK293T cells with ectopic ENG against cells without: 7.5 fold
Substance: recombinant DSP-His protein (domain or fragment)
